Residue numbers refer to the chain shown, from its start.

For test [1], the target named is T1, human Nectin-4 expressed on cells (human, UniProt Q96NY8 32-510).
T1 sequence: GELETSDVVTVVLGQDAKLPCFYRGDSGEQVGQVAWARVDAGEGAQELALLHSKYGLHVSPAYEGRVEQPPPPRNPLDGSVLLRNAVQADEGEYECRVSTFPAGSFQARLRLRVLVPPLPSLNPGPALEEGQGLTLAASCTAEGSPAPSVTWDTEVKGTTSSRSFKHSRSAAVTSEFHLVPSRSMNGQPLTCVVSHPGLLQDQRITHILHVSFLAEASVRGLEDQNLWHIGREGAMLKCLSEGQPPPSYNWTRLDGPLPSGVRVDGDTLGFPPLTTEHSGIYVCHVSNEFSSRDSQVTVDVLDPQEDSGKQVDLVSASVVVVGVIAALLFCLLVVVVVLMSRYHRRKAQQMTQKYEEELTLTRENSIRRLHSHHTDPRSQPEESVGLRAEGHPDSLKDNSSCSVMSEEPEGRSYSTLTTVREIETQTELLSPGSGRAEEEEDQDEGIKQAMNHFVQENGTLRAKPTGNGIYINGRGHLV
Kind of test: cell-based or functional assay.

Test [2] concerns the target T2, human Nectin-4 Mutant 2 (human, UniProt Q96NY8 32-510).
T2 construct: Expressed on transfected HEK293T cells; also called V90S/P92A/A93S/E95A/G96D
T2 chain: T1 sequence with V59S, P61A, A62S, E64A, G65D
As to the kind of experiment: binding to HEK293T cells expressing Nectin-4 mutant.

Test [3] concerns the target T3, human Nectin-4 Mutant 7 (human, UniProt Q96NY8 32-510).
T3 construct: Expressed on transfected HEK293T cells; also called S195A/K197T/S199A
T3 chain: T1 sequence with S164A, K166T, S168A
Kind of test: binding to HEK293T cells expressing Nectin-4 mutant; '-' means association does not occur.

Test [4] addresses T4, human Nectin-4 Mutant 7bis (human, UniProt Q96NY8 32-510).
T4 construct: Expressed on transfected HEK293T cells; also called A72P/G73N/K197T/S199A
T4 chain: T1 sequence with A41P, G42N, K166T, S168A
The description is as above.

The target of test [5] is T5, human Nectin-4 (Homo sapiens, UniProt Q96NY8).
T5 sequence (Q96NY8 32-510): T1 sequence
As to the kind of experiment: Species cross-reactivity, binding to Nectin-4. The procedure: Anti-Nectin-4 antibodies were tested by flow cytometry for binding to different CHO cell lines made to express respectively the mouse, cynomolgus and rat Nectin-4 protein (including an N-terminal V5 tag not shown in the sequences below).
Antibody 5E7 bound human, cynomolgus, as well as rat Nectin 4 proteins but lack binding to the mouse Nectin 4 protein. FIGS. 6A and 6B show binding of anti-Nectin-4 antibodies on rat and cynomolgus Nectin-4-expressing CHO cell lines.

Test [6] has as its target T6, human Nectin-4 Mutant 1 (human, UniProt Q96NY8 32-510).
T6 construct: Expressed on transfected HEK293T cells; also called S58P/G59D/Q61A/N106D/P107A
T6 chain: T1 sequence with S27P, G28D, Q30A, N75D, P76A
As to the kind of experiment: binding to HEK293T cells expressing Nectin-4 mutant; '-' means association does not occur.

B1: chimeric parental 5E7 antibody (antibody, V domains shown)
VH: QVQLQQPGAELVKPGASVKLSCKASGYIFTSYWMHWVKQRPGQGLEWIGEIDPSDSYTNYNQKFKGKATLTLDKSSSTTYMQLSSLTSEDSAVYYCVRGYGNYGDYWGQGTTLTVSS
VL: DVVMTQAAFSNPVTLGTSASISCRSSKSLLHSNGITYLYWYLQKPGQSPQLLIYQMSNLASGVPDRFSSSGSGTDFTLRISRVEAEDVGVYYCAQNLELPWTFGGGTKLEIKR
notes: Chimeric antibody, murine variable domains with human constant regions; also called ch5E7; CHG1-M-1N4-5E7
On to B1, for which, in test [1], the “internalization efficiency on MDA-MB-468, normalized to chimeric parental antibody (Fab-ZAP, CTG), first column” value was 100 % of chimeric parental. In addition, the “internalization efficiency on MDA-MB-468, normalized to chimeric parental antibody (Fab-ZAP, CTG), second column” value in test [1] was 100 % of chimeric parental. In addition, the binding result in test [2] was “binds”; in test [3], “no binding”; in test [4], “no binding”.

B2: 5E7 (antibody, V domains shown)
VH: QVQLQQPGAELVKPGASVKLSCKASGYIFTSYWMHWVKQRPGQGLEWIGEIDPSDSYTNYNQKFKGKATLTLDKSSSTTYMQLSSLTSEDSAVYYCVRGYGNYGDYWGQGTTLTVSSASTKGP
VL: DVVMTQAAFSNPVTLGTSASISCRSSKSLLHSNGITYLYWYLQKPGQSPQLLIYQMSNLASGVPDRFSSSGSGTDFTLRISRVEAEDVGVYYCAQNLELPWTFGGGTKLEIKRTVAAP
B2: the “binding to human Nectin 4 protein” value in test [5] is given as “bound”.

B3: N41 (antibody, V domains shown)
VH: QVQLKQSGPGLVQPSQSLSITCTVSGFSLTNYGVHWVRQSPGKGLEWLGVIWSGGSTDYNAAFISRLSISKDTSKSQVFFKMNSLQADDTAIYYCARELIHAMDNWGQGTSVTVSS
VL: DIQMTQSPASLSVSVGETVTITCRASENIYSNLAWYQQKQGNSPQLLVFAATNLADGVPSRFSGSGSGTQYSLKINSLQSEDFGTYYCQHFWGTPTFGGGTKLEIK
Consider B3, for which the binding result is “binds” in test [2] and “no binding” in test [6].

The values above are taken from patent US20250297004A1, “NECTIN-4 BINDING AGENTS” (INNATE PHARMA, priority 2022, published 2025).
